Test results: US20090305254, “Method and Apparatus for Assaying Test Substance in Sample” (TECHNO MEDICA CO., LTD., published 2009)

B1: structure-switching thrombin aptamer with inserted hairpin (22-46 nt) (ssDNA)
DNA: CACTGGTAGGTTGGTGTGGTTGGACGACGAATTCATGATCACGTCCTTGGGGCCAGTG

Columns and labels:
[1] = molecular target: T1, bovine serum albumin (BSA) (Bos taurus, UniProt P02769 P02769:25-607); assay: control; PQQGDH-labeled aptamer, electrochemical bead capture assay; no BSA-concentration-dependent current; settings: G4 with inserted hairpin (15-nt loop 27-41, 5-bp stem)
T1 sequence (P02769 25-607, one chain of several): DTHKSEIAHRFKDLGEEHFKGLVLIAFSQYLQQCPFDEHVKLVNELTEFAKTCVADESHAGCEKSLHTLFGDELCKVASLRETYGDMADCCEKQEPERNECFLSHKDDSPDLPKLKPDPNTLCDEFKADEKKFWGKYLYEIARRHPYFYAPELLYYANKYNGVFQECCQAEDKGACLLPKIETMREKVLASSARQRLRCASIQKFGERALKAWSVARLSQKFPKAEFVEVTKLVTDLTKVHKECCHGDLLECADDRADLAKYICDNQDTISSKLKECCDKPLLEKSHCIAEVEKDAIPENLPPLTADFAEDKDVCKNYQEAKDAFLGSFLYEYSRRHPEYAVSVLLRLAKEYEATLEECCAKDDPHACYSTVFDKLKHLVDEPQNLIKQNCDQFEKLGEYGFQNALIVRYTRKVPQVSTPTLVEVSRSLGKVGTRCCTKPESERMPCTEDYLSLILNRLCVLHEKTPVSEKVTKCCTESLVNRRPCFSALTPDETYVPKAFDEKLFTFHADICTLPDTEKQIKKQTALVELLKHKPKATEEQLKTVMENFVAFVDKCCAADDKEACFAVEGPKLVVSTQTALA
Description: Each sample solution (100 μL), which contained thrombin (0 to 10 μg/mL, […]) and the PQQGDH-labeled aptamer (0.1 U, approx. 10 μmol) prepared above in Procedure (2), was added to the DNA-immobilized carrier (10 μL) obtained above in Procedure (1), and the resulting mixture was stirred at room temperature for 15 minutes and then centrifuged. Using the thus-obtained supernatant (20 μL) and 10 mM MOPS (pH 7.2, 4 mL in total), which contained mPMS (1-methoxyphenazine methosulphate) (6 mM), PQQ (1 μM) and CaCl₂ (1 mM), as a reaction solution, a gold electrode as a working electrode and a platinum electrode as an opposing electrode, the response current was measured at an impression potential of +100 mV vs Ag/AgCl while adding glucose to a final concentration of 60 mM. The measurement was conducted at 25° C. With respect to each of sample solutions containing thrombin at 50 to 1,000 μg/mL ([…]), detection was similarly conduced by doubling the amounts of the DNA-immobilized carrier and ap-GDH to be employed.
A thrombin-concentration-dependent increase in current value was observed up to the level of 10 μg/mL. When BSA was used as a control in place of thrombin, the resultant current value was low, no BSA-concentration-dependent increase in current value was observed (FIG. 4(b)), and the detection limit was 100 ng/mL (2.7 nM) (FIG. 4(a)). […]

thrombin = thrombin (UniProt P00734;P00734 P00734:328-363,P00734:364-622); assay: EMSA; 10 mM MOPS pH 7.4, room temp; thrombin-bound aptamer does not hybridize FITC 15-mer complementary strand; PQQGDH-labeled aptamer bead assay detection limit 100
[2] = molecular target: T1, bovine serum albumin (BSA); assay: SPR; control; PBS with 1 mM MgCl2 pH 7.4; also no response current at 1 uM in electrochemical assay; settings: label: biotin (SPR); hairpin
Description: Biotinylated CaAp-1 was immobilized on an SPR chip (SA chip), and variations in SPR signal when IgE solutions of various concentrations (100 μL) were fed were observed. Upon measurement of interaction, an Mg2+-containing PBS buffer (138 mM NaCl, 2.7 mM KCl, 8.1 mM NaHPO₄, 1.1 mM KHPO₄, 1 mM MgCl₂, pH 7.4) was used, and the flow rate was set at 20 μL/min. Observed as a control were variations in SPR signal when bovine serum albumin (BSA) solutions of various concentrations were fed.
To beads (20 μL; solid amount: 10 μL) with “NEUTRAVIDIN” (trade name) immobilized as a biotin-binding substance thereon, the biotin-modified 14-mer capture oligonucleotide (0.5 nmol) was added. With 100 mM phosphate buffer and 150 mM […] (pH7.2), the total volume was adjusted to 500 μL. The resultant mixture was stirred overnight at 4° C. to immobilize the 14-mer capture oligonucleotide on the beads. […] Using the supernatant (20 μL) and 10 mM MOPS (pH 7.2), which contained CaCl₂ (1 mM) and PQQ (1 μM), as a reaction solution (total volume: 4 mL), a gold electrode as a working electrode and a platinum electrode as an opposing electrode, the response current was measured at an impression potential of +100 mV vs Ag/AgCl while adding glucose to a final concentration of 60 mM. […]

| Binder | binding result [1] | binding result (thrombin) | binding result [2] |
| --- | --- | --- | --- |
| B1 | no binding | binds | – |
| TCACGTTTATCCGTCCCTCCTAGTGGCGTGA (ssDNA) [CaAp-1 IgE-binding aptamer] | – | – | no binding |
